Bridge positions count the residues as written; N and C are the ends. Square brackets hold non-standard residues; d marks the D form. * marks the point of attachment. Propanoyl(3-maleimido) = O=C1C=CC(=O)N1CCC(=O)*; Nle = CCCC[C@H](N)C(=O)O; AEEA = NCCOCCOCC(=O)O
Legend:
[1] = Surrogate activity-based plasma stability assay; conditions: for Surrogate activity-based Plasma stability t½: Table 2
hAPJ = biological target: T1, hAPJ (Homo sapiens, UniProt P35414); assay: hAPJ Calcium Flux Assay; assay type: cell-based; conditions: Chem-5 APJ stable cells, FLIPR calcium flux; read-out: hAPJ Ca^2+ Flux EC50
T1 sequence (P35414 1-380): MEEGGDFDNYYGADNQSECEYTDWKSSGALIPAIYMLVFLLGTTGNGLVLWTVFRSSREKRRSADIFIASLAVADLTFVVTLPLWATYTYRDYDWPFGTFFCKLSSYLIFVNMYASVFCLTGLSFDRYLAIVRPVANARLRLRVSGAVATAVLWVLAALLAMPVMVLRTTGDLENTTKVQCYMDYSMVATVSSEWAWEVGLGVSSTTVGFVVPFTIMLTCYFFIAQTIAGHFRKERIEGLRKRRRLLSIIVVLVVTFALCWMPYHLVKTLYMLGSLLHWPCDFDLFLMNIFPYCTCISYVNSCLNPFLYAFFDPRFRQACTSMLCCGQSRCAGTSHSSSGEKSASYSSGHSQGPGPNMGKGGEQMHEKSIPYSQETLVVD
Procedure: Chem-5 APJ stable cells (Millipore #HTS068C) were plated in 384-well format with 10,000 cells/well in 25 ul growth media, then grown 24 hours in a 37° C. tissue culture incubator. One hour before the assay, 25 ul/well FLIPR Calcium 4 dye (Molecular Devices R8142) with 2.5 mM probenecid was added, and cells were incubated one hour in a 37° C. tissue culture incubator. Bioconjugates were solubilized in HBSS, HEPES & 0.1% BSA buffer, and serially-diluted 10-fold, from 50 uM to 5 pM, in triplicate. FLIPR Tetra was used to add bioconjugates to the cells with dye (1:5, for final bioconjugate concentrations ranging from 10 uM to 1 pM). FLIPR dye inside the cells emitted fluorescence after binding to calcium, while fluorescence from outside the cells was masked. […] Readings were done for 3 minutes total, beginning 10 seconds before the bioconjugate addition. Maximum-minimum values were calculated and plotted for each bioconjugate concentration, and GraphPad prism software was used to calculate EC50 values at the curve inflection points, for calcium flux stimulation by bioconjugates.

[2] = Plasma Stability Assay (LC-MS); assay type: in vitro ADME; conditions: Table 3, rat plasma, 37° C.
Procedure: • Materials: • Working solution: 1 mg/mL test article is prepared in Milli-Q water • Extraction solution: Methanol:Acetonitrile:Water (1:1:1) with 0.1% Formic Acid and 400 ng/mL Glyburide. • Plasma: Male Sprague-Dawley rat plasma (with sodium heparin), purchased from Bioreclamation LLC (Liverpool, N.Y.). • Whole blood: Male Sprague Dawley whole blood (with sodium heparin), purchased from Bioreclamation LLC (Liverpool, N.Y.) • Lung homogenate: Male rat Sprague Dawley lung was purchased from Bioreclamation LLC (Liverpool, N.Y.). The lung was homogenized using polytron homogenizer after addition of 5× volume of 1×PBS. The homogenate was centrifuged at 9000 rpm for 10 min at 4° C. The supernatant was centrifuged again at 3000 rpm for 30 min to make a clear supernatant. Protein concentration was determined using a commercial kit (Pierce, Thermo Scientific). Sample Preparation Procedure: (peptides)
Test article was prepared in one of the following biological matrices: heparinized rat plasma, heparinized rat whole blood or lung homogenate. The plasma and whole blood sample was prepared at 5000 ng/mL by adding 5 uL of 1 mg/mL Working solution to 995 uL of rat plasma or whole blood. […]

Substance | Surrogate activity-based Plasma stability t½ [1] [h] | EC50 (hAPJ) [nM] | Plasma stability t½ [2] [h] | Surrogate Activity based Plasma stability t½ ([1]; Table 3) [h]
Albumin-MPA-O2Oc-O2Oc-O2Oc-O2Oc-Q-R-P-R-L-C*-H-F-G-P-Nle-C*-f-OH [Example 1] | >16.67 |  |  | 
Albumin-MPA-O2Oc-O2Oc-O2Oc-O2Oc-Q-R-P-R-L-C*-H-F-G-P-Nle-C*-f-OH ({albumin-Propanoyl(3-maleimido)}-[AEEA][AEEA][AEEA][AEEA]QRPRLCHFGP[Nle]C[dF]-OH; disulfide 10-16; also: albumin conjugate) [Example 1] |  | 47.2 |  | 
Example 5: Fc-Apelin fusion SEQ ID NO: 99; linker GGGGSGGGGSGGGGS, polypeptide QRPRLSHKGPMPF | 5.57 |  |  | 
Albumin-TPA-O2Oc-O2Oc-O2Oc-O2Oc-Q-R-P-R-L-C*-H-F-G-P-Nle-C*-f-OH [Example 2] | >16.67 | 92.4 | ~24 | >16.67
Example 4: Fc-Apelin fusion SEQ ID NO: 98; linker GGGGSGGGGS, polypeptide QRPRLSHKGPMPF | 3.53 |  |  | 
Albumin-MPA-NHCH2CH2CH2−OCH2CH2OCH2CH2O-CH2CH2CH2NH-C(O)CH2CH2C═O-A-R-P-R-L-S-H-K-G-P-Nle-P-F-OH (ARPRLSHKGPLPF; albumin-MPA linker conjugate; Nle residue) [Example 3] | 0.405 | 52 |  | 

From patent publication US9340582B2, “Bioconjugates of synthetic apelin polypeptides” (NOVARTIS AG, priority 2013, dated 2016)
